The results in this text go back to US20260152571A1.

In test [1] the target is HLA-A2 on T2 cells without added peptide (human). As to the kind of experiment: flow cytometry, T2 cells without peptide, antibody 10 µg/mL. In general terms: A flow cytometer gives signals particle by particle.
For test [2], the target named is WT1RMF/HLA-A2 complex on cells (human). As to the kind of experiment: flow cytometry, T2 cells pulsed with 25 µM WT1RMF, antibody 10 µg/mL.
For test [3], the target named is PIGQ/HLA complex on PIGQ-pulsed T2 cells (human). As to the kind of experiment: flow cytometry, T2 cells pulsed with 25 µM PIGQ peptide, antibody 10 µg/mL.
Test [4] addresses MED13L/HLA complex on MED13L-pulsed T2 cells (human). As to the kind of experiment: flow cytometry, T2 cells pulsed with 25 µM MED13L peptide, antibody 10 µg/mL.

As for ISO (antibody), the Percentage of Positive Cells (%) in test [1] is 5.43%; in test [2], 4.93%; in test [3], 4.78%; in test [4], 5.38%.
